Data published in patent US20260022175A1 (Chugai, published 2026).

What was measured:
[1] = biological target: T1, human FcγRIIa R allotype extracellular domain with C-terminal His-tag (human, UniProt P12318 34-217); experiment: SPR; KD of 04H1389-G1m/04L1305-k0MT divided by KD of variant
T1 construct: extracellular domain; also called hFcγR IIa R
T1 sequence (looked up): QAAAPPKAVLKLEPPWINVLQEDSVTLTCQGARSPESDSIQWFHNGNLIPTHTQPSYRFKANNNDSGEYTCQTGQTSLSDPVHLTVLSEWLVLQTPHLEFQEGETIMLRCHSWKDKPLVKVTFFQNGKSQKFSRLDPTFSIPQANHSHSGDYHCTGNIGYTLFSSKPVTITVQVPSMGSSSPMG

[2] = biological target: T2, human FcγRIa extracellular domain with C-terminal His-tag (human, UniProt P12314 16-292); experiment: as above
T2 construct: extracellular domain; also called hFcγR Ia; hFcγRIa

[3] = biological target: T3, human FcγRIIIa F allotype extracellular domain with C-terminal His-tag (human, UniProt P08637 17-208); experiment: as above
T3 construct: extracellular domain; also called hFcγR IIIa F

[4] = biological target: T4, human FcRn (human, UniProt P55899 24-290; P61769 21-119); experiment: as above
T4 construct: Prepared by the method of WO 2010/107110; also called hFcRn

[5] = biological target: T5, human FcγRIIa H allotype extracellular domain with C-terminal His-tag (human, UniProt P12318 34-217); experiment: as above
T5 construct: extracellular domain; also called hFcγR IIa H
T5 sequence (looked up): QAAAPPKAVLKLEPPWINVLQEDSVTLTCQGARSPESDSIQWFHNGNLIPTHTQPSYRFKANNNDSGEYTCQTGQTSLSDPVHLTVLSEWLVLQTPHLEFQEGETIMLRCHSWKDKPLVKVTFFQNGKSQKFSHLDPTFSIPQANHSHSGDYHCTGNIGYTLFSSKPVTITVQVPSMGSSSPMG

[6] = biological target: T6, human FcγRIIIa V allotype extracellular domain with C-terminal His-tag (human, UniProt P08637 17-208); experiment: as above
T6 construct: extracellular domain; also called hFcγR IIIa V

[7] = biological target: T7, human FcγRIIb extracellular domain with C-terminal His-tag (human, UniProt P31994 43-217); experiment: SPR; binding amount divided by that of 04H1389-G1m/04L1305-k0MT
T7 construct: extracellular domain; also called hFcγR IIb
T7 sequence (looked up): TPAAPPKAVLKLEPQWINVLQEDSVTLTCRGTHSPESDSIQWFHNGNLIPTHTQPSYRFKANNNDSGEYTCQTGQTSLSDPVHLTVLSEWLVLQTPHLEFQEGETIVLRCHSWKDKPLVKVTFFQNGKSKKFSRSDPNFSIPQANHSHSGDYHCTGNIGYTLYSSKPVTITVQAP

[8] = biological target: T7, human FcγRIIb extracellular domain with …; experiment: SPR; FcγRIIb bound amount per unit captured Ab
[9] = biological target: T4, human FcRn; experiment: SPR Biacore T200, captured Ab, pH 6.0, steady state
[10] = biological target: T1, human FcγRIIa R allotype extracellular …; experiment: SPR Biacore T200, captured Ab, pH 7.4
[11] = biological target: T2, human FcγRIa extracellular domain with …; experiment: SPR Biacore T200, captured Ab, pH 7.4
[12] = biological target: T3, human FcγRIIIa F allotype extracellular …; experiment: SPR Biacore T200, captured Ab, pH 7.4
[13] = biological target: T5, human FcγRIIa H allotype extracellular …; experiment: SPR Biacore T200, captured Ab, pH 7.4
[14] = biological target: T6, human FcγRIIIa V allotype extracellular …; experiment: SPR Biacore T200, captured Ab, pH 7.4, steady state model

T2 sequence (P12314 16-292): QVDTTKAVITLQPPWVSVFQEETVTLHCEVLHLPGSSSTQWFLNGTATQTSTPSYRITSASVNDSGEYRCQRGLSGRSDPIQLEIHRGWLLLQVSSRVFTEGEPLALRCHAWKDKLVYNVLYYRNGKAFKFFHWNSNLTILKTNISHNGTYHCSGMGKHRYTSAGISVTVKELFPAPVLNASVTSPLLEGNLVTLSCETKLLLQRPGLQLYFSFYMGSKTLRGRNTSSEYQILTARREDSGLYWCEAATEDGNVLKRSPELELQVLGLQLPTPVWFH
T3 sequence (P08637 17-208): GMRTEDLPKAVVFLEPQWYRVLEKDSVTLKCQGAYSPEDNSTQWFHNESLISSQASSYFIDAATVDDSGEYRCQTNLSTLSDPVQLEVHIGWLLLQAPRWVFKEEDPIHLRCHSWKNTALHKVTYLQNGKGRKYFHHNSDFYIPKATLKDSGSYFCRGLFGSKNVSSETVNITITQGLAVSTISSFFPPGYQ
T6 sequence (P08637 17-208 F176V): as the sequence (P08637 17-208) above, with F160V counted along it

- Relative value to KD between G1m and hFcγRs [1]: 1
- Relative value to KD between G1m and hFcγRs [2]: 1
- Relative value to KD between G1m and hFcγRs [3]: 1
- Relative value to KD between G1m and hFcRn [4]: 1
- Relative value to KD between G1m and hFcγRs [5]: 1
- Relative value to KD between G1m and hFcγRs [6]: 1
- Relative binding amount [7]: 1
- Binding amount [8]: 0.011
- Kd [9]: 1000 nM
- Kd [10]: 1600 nM
- Kd [11]: 0.069 nM
- Kd [12]: 690 nM
- Kd [13]: 1100 nM
- Kd [14]: 880 nM
B1: 04H1389-G1m/04L1305-k0MT (antibody, human IgG1, kappa)
heavy: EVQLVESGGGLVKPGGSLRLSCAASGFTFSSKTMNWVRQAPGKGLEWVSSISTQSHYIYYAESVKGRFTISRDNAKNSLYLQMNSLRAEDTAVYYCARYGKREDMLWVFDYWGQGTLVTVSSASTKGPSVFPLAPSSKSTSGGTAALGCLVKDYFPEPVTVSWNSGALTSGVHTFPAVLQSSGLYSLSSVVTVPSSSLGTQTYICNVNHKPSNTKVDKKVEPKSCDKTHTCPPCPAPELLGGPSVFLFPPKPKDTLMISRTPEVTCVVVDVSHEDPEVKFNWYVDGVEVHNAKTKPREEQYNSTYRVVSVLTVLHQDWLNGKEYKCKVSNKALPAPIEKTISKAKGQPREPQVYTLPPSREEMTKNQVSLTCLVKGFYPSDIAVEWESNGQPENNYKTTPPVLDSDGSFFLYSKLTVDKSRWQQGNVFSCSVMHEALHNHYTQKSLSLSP
light: DIVMTQSPLSLPVTPGEPASISCDGPSTGVGDYNYVHWYQQKPGQAPRLLIYFTSKKPSGVPDRFSGSGSGTDFTLKISRVEAEDVGVYYCQTYAAPLGPMFGQGTKLEIKRTVAAPSVFIFPPSDEQLKSGTASVVCLLNNFYPREAKVQWKVDNALQSGNSQESVTEQDSKDSTYSLSSTLTLSKADYEKHKVYACEVTHQGLSSPVTKSFNRGEC
